According to ChEMBL document CHEMBL4052696, “Varic acid analogues from fungus as PTP1B inhibitors: Biological evaluation and structure-activity relationships” (Bioorg Med Chem Lett, 2017):

How the values were obtained:
Details in all cases: Homo sapiens
[1] = compound: CCCc1cc(OC(=O)c2c(O)cc(OC(=O)c3c(O)cc(O)cc3CCC)cc2CCC)cc(O)c1C(=O)O; assay: Competitive inhibition of PTP1B (unknown origin) assessed as Km(app) for substrate at 0.4 uM using p-nitrophenyl phosphate substrate incubated for 30 mins by Lineweaver-Burk double reciprocal plot (reference value: 1.43 mM)
[2] = compound: CCCc1cc(OC(=O)c2c(O)cc(OC(=O)c3c(O)cc(O)cc3CCC)cc2CCC)cc(O)c1C(=O)O; assay: Competitive inhibition of PTP1B (unknown origin) assessed as Km(app) for substrate at 0.1 uM using p-nitrophenyl phosphate substrate incubated for 30 mins by Lineweaver-Burk double reciprocal plot (reference value: 1.43 mM)
[3] = compound: CCCc1cc(OC(=O)c2c(O)cc(OC(=O)c3c(O)cc(O)cc3CCC)cc2CCC)cc(O)c1C(=O)O; assay: Competitive inhibition of PTP1B (unknown origin) assessed as Km(app) for substrate at 0.25 uM using p-nitrophenyl phosphate substrate incubated for 30 mins by Lineweaver-Burk double reciprocal plot (reference value: 1.43 mM)

B1: Tyrosine-protein phosphatase non-receptor type 1 (Homo sapiens), P18031 (protein)
chain: MEMEKEFEQIDKSGSWAAIYQDIRHEASDFPCRVAKLPKNKNRNRYRDVSPFDHSRIKLHQEDNDYINASLIKMEEAQRSYILTQGPLPNTCGHFWEMVWEQKSRGVVMLNRVMEKGSLKCAQYWPQKEEKEMIFEDTNLKLTLISEDIKSYYTVRQLELENLTTQETREILHFHYTTWPDFGVPESPASFLNFLFKVRESGSLSPEHGPVVVHCSAGIGRSGTFCLADTCLLLMDKRKDPSSVDIKKVLLEMRKFRMGLIQTADQLRFSYLAVIEGAKFIMGDSSVQDQWKELSHEDLEPPPEHIPPPPRPPKRILEPHNGKCREFFPNHQWVKEETQEDKDCPIKEEKGSPLNAAPYGIESMSQDTEVRSRVVGGSLRGAQAASPAKGEPSLPEKDEDHALSYWKPFLVNMCVATVLTAGAYLCYRFLFNSNT
Km [1]: 91 mM
Km [2]: 12 mM
Km [3]: 44 mM
